# In the DeepSol protein solubility set:
# Assay: soluble on expression in E. coli; label from the status in PepcDB or PDB records
row,Sequence,soluble on expression in E. coli
1,MNKKRMIAMVSTALLVTGCAEVGNAQTVAVENSGQSVQKNIVKSIQSQANPLKTIEPSKPFEDLKPLKKMIGNAQYVGLGENTHGSSEIFTMKFRLVKYLVTEMGFTNFAMEEDWGNGLKLNEYIQTGKGNPREFLKLLYPTDEIIAMIEWMKDYNADPSNKKKIQFIGLDLKALDQGSFNKVIDYVRLHRPDLLAEVEENYKELSSFTGSIQEYMKLTPKLKEKFKANAERVARLLKDENEQANTEIIPSEYIWAKATASAIEKFTTMLLPNDYPSIIKLHEQYLADHAMWAQETFGGKTMVWAHNIHIAKGIIDEKLYPYVAGQFLKERLDNNYVTIGSTTTEGNFTLYSEYNPSTGGKITTDTIPQDVKSFNYTLGKVPYKMFLLDNRHLKGQAEKWVKAKRPLLSIGGQILPNSSVYFDTSLLEQFDIIFHIRKTSPSHIKLEHHHHHH,soluble
2,GSHMDPLMQKIDISENPDKIYFIRREDGTVHRGQVLQSRTTENAAAPDEYYVHYVGLNRRLDGWVGRHRISDNADDLGGITVLPAPPLAPDQ,soluble
3,MDFYYPNLNNDMWRIVGLLFFGDKDHFLNDTRKAFCREQIIDFLNEKGIALFDTASSIRRLQDNASDKFLEVVQPTDIAALLRQLPECRAIVTTGQKATDTLRAQLEVEEPKVGDYAEFVFEGRAMRLYRMPSSSRAYPLALDKKAAAYRIMYQDLQMVILEHHHHHH,soluble
4,KQGPTSVAYVEVNNNSMLNVGKYTLADGGGNAFDVAVIFAANINYDTGTKTAYLHFNENVQRVLDNAVTQIRPLQQQGIKVLLSVLGNHQGAGFANFPSQQAASAFAKQLSDAVAKYGLDGVDFNDEYAEYGNNGTAQPNDSSFVHLVTALRANMPDKIISLYNIGPAASRLSYGGVDVSDKFDYAWNPYYGTWQVPGIALPKAQLSPAAVEIGRTSRSTVADLARRTVDEGYGVYLTYNLDGGDRTADVSAFTRELYGSEAVRT,soluble
5,MKLARFLAKGRVHQGVYREGLLLDEAGEAHRPEDVTWLLPFTPGKILGVALNYADHAEELGLSRPEEPALFWKPNTSLLPHKGVVLYPKGARFVHYEVELAVVVGRPMKRVRAKDALDYVLGYTIANDLVARDYVTNTFRPPIRAKGRDTFLPLGPFLVVEEVEDPQDLWLRAYVNGELRQEGHTSRMLYSVAELLEFISEFMTLEPYDVLLTGTPKGISQVRPGDVMRLEIEGLGALENPIEEEP,soluble
6,MGHHHHHHSHLGHSTMYMWAMGDREVFIELAEALTGARLTHSYPIPGGARRDIPADFPDMARRAVRYMRKRLDEYAKIFLNNPVIRSRLEGVGVIPKKAAAEMGIVGPNARGSGIDYDVRLVHPYDAYPEIDFEVPVFEEGDALARTYVRVEEIKQSLRIIEQAVEWLEKHPREPIVDKYLYGKYPPLHKKVLEAEGRAKLLPTVAAMKVPPGRAIGRAETGRGETVYYVESDGGVNPYRVRIVTASARNVIAFKYVLPGHRVMDIPAIYGSLDYFPPEADR,not soluble
7,MSLTYLIKVLELFSGVGSFSISLNTLGIEHEIVGFSETRKTATQLFCKLHNKKESENLGDVRNVSAKDLDVDLLVFGSPCQSFTRAGKQGGGLKGSDTRSALMWEAVRIMEECKPKWIVWENVPDAISRKNMPNFQNYMDELDSLNYNTYYKVLNAHELGSAQKRKRLFSISIRKDIDNGKFEFLDLTREPKHLETYLENNDQPDIANEHIHSHLILGKDENGYKIKNGTKKGYLYANNGDGIDLAYVTSKARRGRVQVKACQTIMRGKTLGTINDGVLRFYSPREYWRLQEMPDELYKHVEACNFKPSTAYDVVGGVINQLHLKTVFLSLKKAFNEGHHHHHH,not soluble
8,GSDSSLFETYNVELVRKDGQSLGIRIVGYVGTSHTGEASGIYVKSVIPGSAAYHNGHIQVNDKIVAVDGVNIQGFANHDVVEVLRNAGQVVHLTLVRRKTSSSTSPLEPPSDRGTV,soluble
9,MRTIVFDVDDTLYDQQQPFRNAMTKIFPNVATEDMHELYLRFRHHSDETFPKVLANEWSLDFMRFFRMNETLKDLNYPGISQEEGKIFQQVYEEELDNITMHPEVTKLLDTLQEKEIPMGIITNGPTDHQFKKVKQLNIEKWVPSQNIIISQSTGFQKPEKEIFDLACNQFCMEPEHTLYVGDSYDNDIVGARNGGWHSLWFNHRSRELPSCQPASHLAEVTCFTELCPTVEKLFNL,not soluble
10,MAKQTIIVMSDSHGDSLIVEEVRDRYVGKVDAVFHNGDSELRPDSPLWEGIRVVKGNMDFYAGYPERLVTELGSTKIIQTHGHLFDINFNFQKLDYWAQEEEAAICLYGHLHVPSAWLEGKILFLNPGSISQPRGTIRECLYARVEIDDSYFKVDFLTRDHEVYPGLSKEFSR,soluble
11,IGQVNLSARGNFTFARNEIIEYDQVPQVYPWLEKRGTRLNSNKLYIAEGLYTYDDFIINGEGLNRTYELKPGVVSGLSSGVRPGDIKYKDLNGDGKIDSNDQKEDVGNPTVPEVVYGFGFNAEWKGFYAGIFFQGAGNTSTVLGTGADATFFPFQWGVEESAVRSVVADRWTEQNPSQNVMFPRMHSNNFQNNTVASTWWLRDASFLRLKNIELGYNFDKKLLKKLNIEALRFYVQGNNLCVWDHIKMWDPEQGNSNGGFPYPLNRTFTFGLDFTF,not soluble
12,MSYYHHHHHHLESTSLYKKAGLVQRITIAPQGPEFSRFVMGYWRLMDWNMSARQLVSFIEEHLDLGVTTVDHADIYGGYQCEAAFGEALKLAPHLRERMEIVSKCGIATTAREENVIGHYITDRDHIIKSAEQSLINLATDHLDLLLIHRPDPLMDADEVADAFKHLHQSGKVRHFGVSNFTPAQFALLQSRLPFTLATNQVEISPVHQPLLLDGTLDQLQQLRVRPMAWSCLGGGRLFNDDYFQPLRDELAVVAEELNAGSIEQVVNAWVLRLPSQPLPIIGSGKIERVRAAVEAETLKMTRQQWFRIRKAALGYDVP,soluble
13,MGSDKIHHHHHHMSIINDEKLRKYVPEERLDKVKERLEILDTYDLSYITSNFIWKGRRFSPEQVWPIKIYYGKADRELAEKIEKEFRRFVALTIVFPKRLFTASGAVDLYWHFLILHTKEYEKFSKSVWGIPRYDNVLLKKLLNNDDNSFRLRFNLKPDNVNEITILPKKALESLDDKTLDRVLMLERLDLSPISENLLHTIDEFKFVPEQRFPLIAHFGKLDNNIVKRIELEFKKWMALNIAYGGKELNYAAPSGVVDMYFHLFILHTILYKQFCEIFFGKFIHHPLGELF,not soluble
14,MSLKPLHYTASALALGLALMGNAQAVTTIPFWHSMEGELGKEVDSLAQRFNAENPDYKIVPTYKGNYEQNLSAGIAAFRTGNAPAILQVYEVGTATMMASKAIKPVYDVFKEAGIQFDESQFVPTVSGYYSDSKTGHLLSQPFNSSTPVLYYNKDAFKKAGLDPEQPPKTWQDLADYAAKLKASGMKCGYASGWQGWIQLENFSAWNGLPFASKNNGFDGTDAVLEFNKPEQVKHIAMLEEMNKKGDFSYVGRKDESTEKFYNGDCAMTTASSGSLANIREYAKFNYGVGMMPYDADAKDAPQNAIIGGASLWVMQGKDKETYTGVAKFLDFLAKPENAAEWHQKTGYLPITKAAYDLTREQGFYEKNPGADTATRQMLNKPPLPFTKGLRLGNMPQIRVIVDEELESVWTGKKTPQQALDTAVERGNQLLRRFEKSTKSEGGSHHHHHH,soluble
15,MPAKDVQICPIAVDTTVFRSRTWDRLKFEIEYGLQRGTTANSYLISADKIALFDPPGESFTDNFVGTLIQRLDLNSLDYVILGHVNANRAHTLKLLLSLAPQATIICSNPAAQNLEKLLADAEVNNPIQVMKGNDHLDLGRGHELTFIPTPSPRYPGQLCTYDPRTEILFTDKLFGAHVCGDQVFDEGWTIYQEDRRYYFDCLLAPAAAQVSAALNKLEAYPAQTYAPSHGPLVRYGLRELTRNYQQWLSEQQAQALEHHHHHH,not soluble
16,GILDPEERYEHQLRQLNDMGFFDFDRNVAALRRSGGSVQGALDSLLNGDV,soluble
17,MDTQDPLSQKYAISMLFFLLDRGNVKQFELLKIISSNMTIEKLSKILEEAGLINIKREFTGRKSYSFSLTPKGRLVAEQLKKAEEIAQKPSAEIEESVEKIELLLANEEAERIREWSFLLHINIMDDHITEEISGKSPRFFNIYIKRNGNGEFLLWCEQDNSYDCWHVKAAWTYPEVQKMMMHYKGKVKICHICGYENAEEGKFCTNCGTKLE,not soluble
18,MVGRVAQGKEPLHPGPRRQPGGARPGADLGPGGGVNPSPRKRVALFTDGACLGNPGPGGWAALLRFHAHEKLLSGGEACTTNNRMELKAAIEGLKALKEPCEVDLYTDSHYLKKAFTEGWLEGWRKRGWRTAEGKPVKNRDLWEALLLAMAPHRVRFHFVKGHTGHPENERVDREARRQAQSQAKTPCPPRAPTLFHEEA,soluble
19,MTVIYQTTITRIGASAIDALSDQMLITFREGAPADLEEYCFIHCHGELKGALHPGLQFSLGQHRYPVTAVGSVAEDNLRELGHVTLRFDGLNEAEFPGTVHVAGPVPDDIAPGSVLKFESVKE,not soluble
20,VPDSSTALRILVYSDNVQTRERVMRALGKRLHPDLPDLTYVEVATGPMVIRQMDRGGIDLAILDGEATPTGGMGIAKQLKDELASCPPILVLTGRPDDTWLASWSRAEAAVPHPVDPIVLGRTVLSLLRAPAH,soluble
21,MSSDPWGRVDETGTVYVRTADGEQVVGSWQAGSPDEALAYFERKYEGLVVEIGLLEKRVKTTDLSAKDAQTAIDHIREQVDAHHAVGDLDVLRKRLDKLVETVAARREERKAQRAKQSDEARHAKESLVVEAEELAQSDQWRAAGERLRSLVDTWKGLPRLDRKSDDELWHRFSHARSAFSKRRKAHFASLDAQREDARKAKEKLVAEAEALSGSTDWGPTAARYRELMGDWKAAGRAQREHEDDLWNRFRGAQDVFFAARSSVFAERDAEQSENLKLKEELAEEAEKLLPISDLKAARAAFRSLNERWEAIGHVPRDARPKVEGRMHAVERALQESEEVEWRRTNPEARARAEGLTGQLQAAVDKLQGQIEAARSAGNNAKADKLQKELDGRQALLDQALKGLHEFGG,not soluble
22,MSVVSLVGQMYKREKPIPEWKTLMLRELEELFSKHRVVLFADLTGTPTFVVQRVRKKLWKKYPMMVAKKRIILRAMKAAGLELDDNLLDDLVRGQMLLVFADGNPFKIVKEVEKEKVAMPVKPGDKAETEIRIPEGMTNLTPGPILSVFGKLRIQYQVRGGKIYIAKETVVAKPGDVISEDLAGLLMALGIRPIEKGVRVKFAIDGGVLITEDLLRPDIEAFRGDVIDAAKEALGLATEIVYMPVPEAVESAIVKAALAASALAAETGFIAPGTVEDVVRKAIAEEAAVVALLGDKARELGIEEAAPAAAPAAEEKAEEEKKEEEEEKKEDQELSGLDSIFGGF,soluble
23,MSTKEEITKEIEEQGAEVRRVKGDKNSTEEAKKEAIDKLLALKLTYKEVTGQEYAAPNARQSKPKKEEKPKQQPKQQEKKQDGKKQTLLGVGTKKDDNYSEWYSEVITKAEMIEYYDVSGCYVLRPWSFAVWESIQEWFDSGIKKLGVKNCYFPMFVSNAALEREKTHIADFAPEVAWVTRAGNSEMAEPIAIRPTSETVMYPSYKKWVQSHRDLPIKLNQWCNVVRWEFKHPTPFLRTREFLWQEGHTAFANPADAEKEVFQILDLYAGVYTDLLAIPVVKGRKSEKEKFAGGDFTTTVEAYVACNGRGIQGATSHHLGQNFSKMFDISYEDPAKEGERAFAWQNSWGLSTRTIGAMVMIHGDDKGLVLPPRVAAVQVIVVPVGFKTENKQSLFDAVDKVTKDLVADGVKAEHDLRENYNAGWKFNHWELKGVPIRFEVGPNDLAKNQVTAVIRHNGEKKQLSLEGLSKTVKSLLDEIHTAMYNKVLAQRDSHLKSTTCIEEFKKLLDEKCIILSPFCGRPDCEEEIKKASTREDGEGAQMGAKTLCIPLDQPKQELPSKCLFPSCTYNAKAFALFGRSY,not soluble
